Measurements published in patent publication US20100306864A1 (OTSUKA CHEMICAL, published 2010).

T1: CD20 (on Daudi cells) (human, UniProt P11836 1-297)
T1 construct: whole, on cells; The target is the CD20 naturally present on Daudi cells; also called antigen
T1 sequence (looked up): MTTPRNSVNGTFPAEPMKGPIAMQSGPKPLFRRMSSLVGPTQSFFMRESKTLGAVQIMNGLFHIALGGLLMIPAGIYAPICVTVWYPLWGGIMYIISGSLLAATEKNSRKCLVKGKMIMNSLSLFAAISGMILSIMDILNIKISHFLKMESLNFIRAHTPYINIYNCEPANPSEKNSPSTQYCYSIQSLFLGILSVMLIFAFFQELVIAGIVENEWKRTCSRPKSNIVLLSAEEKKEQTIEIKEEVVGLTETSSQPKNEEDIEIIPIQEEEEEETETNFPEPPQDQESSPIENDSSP

B1: anti-CD20 chimera antibody H chain constant region amino acid mutant Ser298Cys (antibody, human IgG1, kappa)
heavy: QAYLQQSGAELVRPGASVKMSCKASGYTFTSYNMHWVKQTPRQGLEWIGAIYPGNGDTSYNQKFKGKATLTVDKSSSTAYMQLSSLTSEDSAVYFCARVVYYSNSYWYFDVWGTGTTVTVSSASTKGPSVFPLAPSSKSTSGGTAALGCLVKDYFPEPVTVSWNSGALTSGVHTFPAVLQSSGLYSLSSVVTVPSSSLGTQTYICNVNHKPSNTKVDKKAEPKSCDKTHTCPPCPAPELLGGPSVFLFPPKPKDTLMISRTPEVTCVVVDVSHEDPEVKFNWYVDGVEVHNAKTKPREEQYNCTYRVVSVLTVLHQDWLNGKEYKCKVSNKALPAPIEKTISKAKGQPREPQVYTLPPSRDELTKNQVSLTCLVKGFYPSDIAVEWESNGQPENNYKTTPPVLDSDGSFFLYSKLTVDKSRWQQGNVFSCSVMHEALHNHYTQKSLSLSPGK
light: QIVLSQSPAILSASPGEKVTMTCRASSSVSYMHWYQQKPGSSPKPWIYAPSNLASGVPARFSGSGSGTSYSLTISRVEAEDAANYYCQQWSFNPPTFGAGTKLELKTVAAPSVFIFPPSDEQLKSGTASVVCLLNNFYPREAKVQWKVDNALQSGNSQESVTEQDSKDSTYSLSSTLTLSKADYEKHKVYACEVTHQGLSSPVTKSFNRGEC
notes: H chain entry already carries Ser298Cys (Kabat EU index); also called Ser298Cys mutant; Ser298Cys-modified antibody; copies: 2 + 2
B2: anti-CD20 chimera antibody H chain constant region amino acid mutant Tyr296Cys (antibody, human IgG1, kappa)
heavy: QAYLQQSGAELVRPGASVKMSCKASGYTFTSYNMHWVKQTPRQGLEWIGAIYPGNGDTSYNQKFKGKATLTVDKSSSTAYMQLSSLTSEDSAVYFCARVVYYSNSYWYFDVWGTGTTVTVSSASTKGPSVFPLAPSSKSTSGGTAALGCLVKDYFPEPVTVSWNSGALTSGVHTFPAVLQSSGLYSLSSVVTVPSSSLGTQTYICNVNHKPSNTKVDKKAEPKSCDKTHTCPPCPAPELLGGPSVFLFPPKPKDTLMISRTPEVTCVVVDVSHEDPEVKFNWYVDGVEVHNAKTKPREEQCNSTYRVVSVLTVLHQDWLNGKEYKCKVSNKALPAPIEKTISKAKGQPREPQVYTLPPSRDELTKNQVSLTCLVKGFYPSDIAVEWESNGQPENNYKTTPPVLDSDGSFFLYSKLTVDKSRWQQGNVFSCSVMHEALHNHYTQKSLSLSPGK
light: B1 light
notes: H chain entry already carries Tyr296Cys (Kabat EU index); also called Tyr296Cys mutant; Tyr296Cys-modified antibody; copies: 2 + 2
B3: anti-CD20 chimera antibody (wild type) (antibody, human IgG1, kappa)
heavy: not shown
light: B1 light
notes: Mouse anti-CD20 variable regions joined to human IgG1 H chain and human L chain constant regions; also called wild type antibody; wild type anti-CD20 chimera antibody; copies: 2 + 2
B4: anti-CD20 chimera antibody H chain constant region amino acid mutant Tyr300Cys (antibody, human IgG1, kappa)
heavy: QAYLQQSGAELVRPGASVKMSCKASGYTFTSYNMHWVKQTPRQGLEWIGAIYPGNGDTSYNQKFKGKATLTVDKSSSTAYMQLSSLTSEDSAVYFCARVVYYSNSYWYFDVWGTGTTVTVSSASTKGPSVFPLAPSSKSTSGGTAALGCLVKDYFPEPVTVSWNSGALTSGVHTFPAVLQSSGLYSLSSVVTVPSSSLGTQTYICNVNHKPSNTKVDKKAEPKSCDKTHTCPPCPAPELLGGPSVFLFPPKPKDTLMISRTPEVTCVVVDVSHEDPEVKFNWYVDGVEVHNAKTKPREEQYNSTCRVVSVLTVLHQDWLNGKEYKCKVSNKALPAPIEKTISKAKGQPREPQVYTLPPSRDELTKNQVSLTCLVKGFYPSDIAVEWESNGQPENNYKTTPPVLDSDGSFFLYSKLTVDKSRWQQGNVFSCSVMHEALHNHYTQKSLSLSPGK
light: B1 light
notes: H chain entry already carries Tyr300Cys (Kabat EU index); also called Tyr300Cys-modified antibody
B5: anti-CD20 chimera antibody H chain constant region amino acid mutant Glu293Cys (antibody, human IgG1, kappa)
heavy: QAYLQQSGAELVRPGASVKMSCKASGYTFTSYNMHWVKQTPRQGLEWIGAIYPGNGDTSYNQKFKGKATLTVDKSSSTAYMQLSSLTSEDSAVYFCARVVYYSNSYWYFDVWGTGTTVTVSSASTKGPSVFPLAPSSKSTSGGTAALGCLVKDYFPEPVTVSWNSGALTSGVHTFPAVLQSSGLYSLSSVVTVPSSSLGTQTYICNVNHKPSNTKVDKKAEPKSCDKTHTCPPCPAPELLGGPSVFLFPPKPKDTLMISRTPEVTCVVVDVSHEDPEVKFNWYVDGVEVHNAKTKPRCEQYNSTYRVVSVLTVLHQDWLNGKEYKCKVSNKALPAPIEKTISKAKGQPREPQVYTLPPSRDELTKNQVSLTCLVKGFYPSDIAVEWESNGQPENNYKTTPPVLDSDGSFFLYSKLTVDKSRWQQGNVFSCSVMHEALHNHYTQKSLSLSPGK
light: B1 light
notes: H chain entry already carries Glu293Cys (Kabat EU index); also called Glu293Cys-modified antibody
B6: anti-CD20 chimera antibody H chain constant region amino acid mutant Glu294Cys (antibody, human IgG1, kappa)
heavy: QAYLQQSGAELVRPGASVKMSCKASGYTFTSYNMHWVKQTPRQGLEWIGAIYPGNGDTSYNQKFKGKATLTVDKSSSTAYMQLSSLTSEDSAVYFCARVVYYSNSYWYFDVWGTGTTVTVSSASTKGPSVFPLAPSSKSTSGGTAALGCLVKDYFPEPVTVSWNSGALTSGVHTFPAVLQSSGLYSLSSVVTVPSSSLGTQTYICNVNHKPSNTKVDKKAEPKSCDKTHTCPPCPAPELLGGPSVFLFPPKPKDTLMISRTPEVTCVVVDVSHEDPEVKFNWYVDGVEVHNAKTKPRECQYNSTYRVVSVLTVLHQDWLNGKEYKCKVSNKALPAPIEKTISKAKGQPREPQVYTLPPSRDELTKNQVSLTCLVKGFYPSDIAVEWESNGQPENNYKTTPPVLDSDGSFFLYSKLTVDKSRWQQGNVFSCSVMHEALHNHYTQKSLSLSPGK
light: B1 light
notes: H chain entry already carries Glu294Cys (Kabat EU index); also called Glu294Cys-modified antibody

target: T2, CD16 (NK cell Fcy receptor III), expressed on CHO-K1 cells (human, UniProt P08637 17-254); assay: flow cytometry on CD16-expressing CHO-K1 cells; biotin anti-human IgG kappa L chain antibody and PE-streptavidin
T2 construct: whole, on cells; also called CD16-expressing CHO-K1 cells
T2 sequence (P08637 17-254): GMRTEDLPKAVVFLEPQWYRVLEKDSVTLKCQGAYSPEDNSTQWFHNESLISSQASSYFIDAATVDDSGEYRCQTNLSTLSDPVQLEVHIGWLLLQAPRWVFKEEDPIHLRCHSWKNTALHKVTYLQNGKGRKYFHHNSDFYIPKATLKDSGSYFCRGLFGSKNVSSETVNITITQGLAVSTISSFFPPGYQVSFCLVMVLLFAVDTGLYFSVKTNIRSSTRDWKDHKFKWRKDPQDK
Method: CD16-expressing CHO-K1 cells were taken at 6×10⁴ cells/tube, each of the antibody mutants obtained in Example (Tyr296Cys or Ser298Cys) or wild type antibody was added thereto to give a total amount of 50 μL/tube, and a reaction was carried out at 4° C. for 1 hour. Following this, washing was carried out with 3 mM EDTA-0.5% BSA-PBS(−) (washing buffer). Subsequently, a biotin-labeled mouse anti-human IgGκ L chain antibody (Vector Lab) diluted 200 times with the washing buffer was added at 100 μL/tube. After a reaction was carried out at 4° C. for 30 min, washing was carried out with 3 mM EDTA-0.5% BSA-PBS(−), PE-labeled streptavidin (BD-Pharmingen) diluted 400 times with the washing buffer was added at 100 μL/tube, and a reaction was carried out at 4° C. for 30 min. After the reaction was completed, washing was carried out twice with 3 mM EDTA-0.5% BSA-PBS(−), and a CD16-binding anti-CD20 antibody was analyzed using a flow cytometer (FACS Caliber, BecktonDickinson).

CD16 binding activity relative to wild type (concentrations that gave the same effect)	Binder
~10 times that of the wild type	B1
~5 times that of the wild type	B2

target: T1, CD20 (on Daudi cells); assay: cell ELISA on Daudi cells, HRP anti-human IgG, OD450
Method: Daudi cells (ATCC catalog No. CCL-213) were dispensed into a 96 well plate at a density of 6×10⁴ cells/well, each of the antibody mutants (Glu293Cys, Glu294Cys, Tyr296Cys, Ser298Cys, or Tyr300Cys) obtained in Example 1 or wild type antibody was added thereto, and a reaction was carried out at 4° C. for 1 hour. Following this, washing was carried out with 3 mM EDTA-0.5% BSA-PBS(−) (washing buffer). Subsequently, 50 μL/well of an HRP-labeled anti-human IgG antibody (Zymed) diluted 500 times with the washing buffer was added, and a reaction was carried out at 4° C. for 1 hour. Cells after the reaction were washed with the washing buffer, 100 μL/well of TMB substrate (KPL) was added thereto so as to cause coloration, the reaction was stopped by adding 100 μL/well of 1 M HCl (Wako), and the OD value at 450 nm was measured using a plate reader (VersaMax, Molecular Devices).

binding result	Binder
binds	B3
binds	B4
binds	B5
binds	B1
binds	B2
binds	B6
